The supplement of paper PMC10567573

B1: DYRK1B (parent)
chain: KKVLNHGYDDDNHDYIVRSGERWL
B2: CCDC6 (parent)
chain: FTPPTSLTRAGMSYYNSPGLHVQH

Variants of: B1
Assay: protein stability index of a GFP-peptide fusion (GPS, HEK-293T) (PSI 1-6); higher = more stable
Settings: c terminus: a fixed tail appended
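Also: lentivirally expressed fusions sorted by FACS into six bins by GFP to DsRed ratio, PSI derived from sequencing read proportions per bin multiplied by bin number.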

Protein stability index of substitutions, site by site:
I16: K 3.49 | E 4.17 | C 3.48 | Y 3.89
L24: F 2.81 | S 3.58 | P 3.82 | I 3.33 | W 2.85 | T 3.51 | K 3.85 | R 3.55 | A 3.37 | Y 3.03 | D 4.08 | N 3.75 | C 3.46 | H 3.57 | G 3.81 | M 3.49 | E 4.07 | Q 3.69 | V 3.8
W23: A 3.81 | T 4.3 | D 4.73 | R 3.6 | G 4.07 | Y 3.64 | S 4.47 | L 3.88 | E 4.46 | C 3.8 | Q 4.2 | V 4.31 | K 4.3 | P 3.7 | H 3.99 | M 3.93 | F 3.62 | I 3.9 | N 4.56

Variants of: B2
Assay: as above
Settings: c terminus: a fixed tail appended

Protein stability index: each site, then its substitutions
T5: C 1.74 | G 2.07 | N 1.81 | F 1.69 | L 2.29 | R 1.96 | A 2 | I 1.84 | Q 1.53 | M 2.42 | S 1.84 | E 2.29 | H 1.72 | D 1.89 | P 1.68 | V 2.01 | Y 1.01 | K 1.54
P4: D 2.23 | M 2.04 | I 1.51 | A 1.15 | N 3.07 | L 4.29 | H 2.19 | F 1.97 | Q 2.48 | T 2.27 | E 1.99 | C 2.3 | R 1.83 | S 1.42 | V 2.5 | Y 3.21
P3: K 2.78 | C 2 | I 1.63 | G 2.07 | M 1.87 | A 1.73 | D 2.1 | W 1.21 | Y 1.93 | E 2.16 | V 2.08 | S 2.1 | F 1.95 | L 1.98 | H 1.79 | T 2.35 | R 2.14 | N 2.02 | Q 2.32
L7: E 2.12 | N 1.7 | G 1.66 | K 2.59 | F 2.4 | H 2.28 | S 1.7 | I 1.41 | D 1.62 | P 2.33 | M 2.29 | A 2.21 | R 2.04 | T 1.89 | Q 2.38 | C 2.61
T2: P 2.26 | Y 1.69 | L 1.87 | G 2.47 | S 1.5 | W 2.67 | V 1.96 | F 1.48 | E 2.83 | A 1.84 | Q 1.91 | D 2.1 | I 2.6 | N 1.55 | H 1.85 | K 1.79 | R 2.17 | C 1.91 | M 2.6
F1: E 2.85 | R 2.19 | P 2.82 | G 2.54 | L 1.89 | D 3.56 | A 2.65 | C 1.52 | M 3.01 | V 2.41 | I 2.46 | H 2.9 | N 2.88 | S 2.01 | T 2.94 | Q 2.64 | K 2.49 | W 2.14 | Y 1.91
S6: H 1.66 | M 1.65 | C 2.1 | I 2.2 | V 2.1 | Y 1.84 | E 1.91 | F 2.98 | K 1.51 | W 2.27 | Q 2.21 | G 2 | A 1.51 | T 1.73 | N 1.84 | R 2.47 | D 1.79 | L 2.45
